# ± gives the uncertainty stated by the source.
# Test: protein stability index of a GFP-peptide fusion (yeast GPS) (PSI 1-4); higher = more stable; sorted into four equal gates, so the index is relative within each strain
# Conditions: pdr5∆
# In short: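 For each peptide, the protein stability index sums the read frequency in every gate after multiplying it by the gate number. Read frequencies came from plasmids that were PCR-amplified from each gate and Illumina-sequenced, with reads assigned to strains by barcodes. The gates were four equal bins of GFP/Cherry fluorescence ratio applied to mid-log yeast in leucine-free medium carrying a pooled library of tiled 17-residue yeast protein peptides fused downstream of GFP on a Cherry-expressing plasmid.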
row,Sequence,protein stability index
1,RTKFVRSLVREIAGLSP [RPL36A],2.71 ± 0.19
2,RTLNIQPEVAVKAAINF [YIL149C/MLP2],2.15 ± 0.045
3,RTPHEIQEANSVDMSAL [RIP1],3.46 ± 0.21
4,RTQFGGGKSVGFGLVYN [RPS24A],2.82 ± 0.05
5,RVAKGSGTSVFEVEMIL [SRP54],3.26 ± 0.099
6,RVEKIPEIPLVVSTDLE [RPL4A],2.93 ± 0.3
7,RVIIQELRFPSPTPIQR [PRP28],2.58 ± 0.15
8,RVLETTLVEFETIKMKE [BRN1],3.23 ± 0.14
9,RVSHSDTNSSKPKNTKE [SIR4],3.08 ± 0.26
10,RVVMMKYDRKVPSPTGE [RPO21],3.11 ± 0.069
11,RVVVPQALRVLRLKPGR [RPL16B],1.58 ± 0.06
12,RWDKEEYQSLMSLKDKL [SMC1],3.31 ± 0.08
13,RWYQLIATGCKDGRIRI [YGL100W/SEH1],2.26 ± 0.057
14,RYFFYLSKINAIQLDYS [RPN3],1.23 ± 0.058
15,SAEYLQMSLEANVVDIT [YJR042W/NUP85],2.19 ± 0.065
16,SAGDDGKVRLWKATYSN [YGL100W/SEH1],2.89 ± 0.089
17,SAGKGISSSAIPYSRNA [RPS13],2.58 ± 0.041
18,SAGQPNLLLSASRDKTL [ASC1],2.77 ± 0.05
19,SAIVNEDGLLEGLDELP [SOH1],3.24 ± 0.082
20,SAKAELEKLVDHHPEGL [PRE10],2.91 ± 0.055
21,SAKEIAKASGCDDESGD [MCD1],1.8 ± 0.15
22,SAKPSQIPTVSSPLGFE [SIR4],2.98 ± 0.058
23,SARGSYLRVSFKNTRET [RPL17A],2.82 ± 0.056
24,SASDALKGRVVEVCLAD [RPS1A],2.82 ± 0.093
25,SASHFEQYTKKINSWDQ [YJL041W/NSP1],3.06 ± 0.061
26,SASKHEYSDNFPVSLSQ [SIR4],2.71 ± 0.039

row,Sequence,protein stability index
1,SASSKEFNFTNLQAKPL [YAR002W/NUP60],2.26 ± 0.068
2,SAVKRLLHVAVSDSNDD [RPN2],3.06 ± 0.071
3,SCKDSQLKWAQNTIDDT [YIL149C/MLP2],2.89 ± 0.057
4,SCTFWSDKESNAYGFIE [YJL039C/NUP192],2.65 ± 0.083
5,SDAQSNLGSNVRNSFPL [REC8],3.12 ± 0.11
6,SDESIERLMTWKFKSLI [RRI2],2.36 ± 0.042
7,SDEVSRGIPRLSEDELR [SMC4],3.69 ± 0.21
8,SDIISMLQISDDNEMTR [RRI2],3.24 ± 0.1
9,SDIVFIHQNAGRLLRAM [BRR2],1.71 ± 0.054
10,SDLGTVVFDSNEAPPKT [YMR153W/NUP53],3.13 ± 0.051
11,SDNVSFEIQGVPPMKLA [YMR129W/POM152],3.18 ± 0.083
12,SDSEDSDAKEQHQSLSR [ESC2],3.19 ± 0.15
13,SDTSKPAFTFGAQKDNE [YJL041W/NSP1],3.32 ± 0.087
14,SEENIGSGLLKLSEIIL [SWI1],3.02 ± 0.066
15,SEHDKKRLSAALSKFLT [YML103C/NUP188],3.08 ± 0.09
16,SEIKQQINKAQILENYN [YJL039C/NUP192],3.17 ± 0.069
17,SEKLITKYFEPTSTENN [ECM29],3.09 ± 0.066
18,SELDSNDFFIIYYTPAF [YJL039C/NUP192],1.51 ± 0.041
19,SELNEGNLSKREIQIDA [SRB8],2.88 ± 0.073
20,SENRFPGWDFETEEIDP [RPL5],2.78 ± 0.076
21,SENVFEGLTYKYPARRI [SSN3],3 ± 0.17
22,SEPLTLKVLSEHLDCMN [PCI8],2.29 ± 0.065
23,SETDLNDIPLGSGQPDN [SRB8],3.12 ± 0.069
24,SFAIYSSTIDAPAFHTS [SRB8],2.21 ± 0.056
25,SFDSIDHSWFLLIGCKL [CSI1],1.77 ± 0.058
26,SFGTANTNGTNASANST [YOR098C/NUP1],3.02 ± 0.11

row,Sequence,protein stability index
1,SFHVQKKTCSSCGYPSA [RPL37B],2.18 ± 0.076
2,SFIISSLDTLELESITE [NUT1],1.64 ± 0.042
3,SFLKVDPDLGLDLMFDE [YJL039C/NUP192],3.3 ± 0.09
4,SFSFLNRADGTGEAQVD [YLR335W/NUP2],3.39 ± 0.23
5,SFSVCKIRCFRYISTLT [IRR1],1.39 ± 0.055
6,SGCDSTKPSLRKASCIW [ECM29],3.11 ± 0.075
7,SGDNHTQQSHEQQPEQP [RPT4],3.15 ± 0.064
8,SGGSVNLYHVTEDGWIY [PRE2],3.16 ± 0.15
9,SGITGECLQAYIFFGPI [RET1],2.72 ± 0.064
10,SGLPTCDYYNTFLLNNK [RPN2],2.96 ± 0.071
11,SGNSANNMNVNMNLNPQ [GAL11],2.87 ± 0.042
12,SGQKAGLIAARRTGLLR [RPL2A],3.43 ± 0.11
13,SGRTVISPDPNLSIDEV [RPO31],1.97 ± 0.06
14,SGTFYRYNAKAIGSGSE [PUP2],3.14 ± 0.09
15,SGTKSEVLTYVNYLISN [YJL039C/NUP192],2.5 ± 0.056
16,SGYNQEDSMIMNQSSID [RPB2],2.67 ± 0.12
17,SHERFFLSQGLHVVITL [CSN12],2.94 ± 0.094
18,SHINTNVGDNNSTASSS [ARP7],3.02 ± 0.067
19,SHLFNEYSYVDSNMDSI [RPN4],3.56 ± 0.087
20,SHNVDELLEHIETIGHL [RPN5],2.24 ± 0.1
21,SIAAERYDYSDEVGRRS [YCG1],2.99 ± 0.11
22,SIATKRFDAQTGSDREV [RPT3],3.17 ± 0.1
23,SIISSKTSCVVEKRIGK [RGR1],2.62 ± 0.084
24,SIKEHSTTMDGANDLGF [MED1],2.8 ± 0.073
25,SIVLLLLSQFGIKVLPE [YML103C/NUP188],1.28 ± 0.085
26,SIVTVVSSAKFSGKYLK [RPL22B],2.86 ± 0.11

row,Sequence,protein stability index
1,SKALYPDYYMIIKYPVA [SNF2],2.31 ± 0.038
2,SKEVRGSKIRVMWGKVT [RPL33A],2.35 ± 0.12
3,SKFSKQQAKGAFQKVAA [RPL24A],2.7 ± 0.078
4,SKINSTELLDYATKLSK [MED4],2.72 ± 0.12
5,SKLKKETASFIPTKESL [YIL149C/MLP2],3.15 ± 0.098
6,SKLLREHGYQSRGFEVM [RPB2],2.71 ± 0.16
7,SKLPDPERWLPLRDRST [SRP72],2.91 ± 0.068
8,SKMYNTDKKAFLGALKY [PRP8],2.27 ± 0.071
9,SKNSKLSIICVGGHNVT [SIR3],1.57 ± 0.039
10,SKQNGIEQSITKNIPIT [SSN8],2.67 ± 0.069
11,SKQVQVSQQPLSRGYTC [ECM29],2.76 ± 0.091
12,SKSMKFSRRFDCRDVYC [CSN9],2.64 ± 0.09
13,SKTVKVLKTLIEKFEQV [RPN6],3.25 ± 0.1
14,SKTVVTLSEPVQGELKP [FAS1],2.73 ± 0.052
15,SKVSIEQRKEAAEFVLA [RPN7],2.49 ± 0.15
16,SKWFNLEKIHSIEVQSL [SWI3],2.45 ± 0.13
17,SLAGFHKVQTKLTRELE [RPS7A],1.98 ± 0.06
18,SLAILGMNLLSNLSQNV [SWI1],2.94 ± 0.058
19,SLAQNDCNSALDQLLVL [RPN5],2.35 ± 0.053
20,SLAWSADGQTLFAGYTD [ASC1],3.05 ± 0.091
21,SLDIRHDFIKGLIMLNL [NUT1],1.56 ± 0.068
22,SLEENAMSTVTLGVVGK [SKI6],3.21 ± 0.14
23,SLFSKIKTFFTQKDSAR [YAR002W/NUP60],2.84 ± 0.083
